Reference: paper doi:10.1101/2024.10.10.617581

Target: Ib, membrane-binding component of the Iota toxin from Clostridium perfringens (N-terminal cleaved, active) (Clostridium perfringens)
Assay: cryo-EM structure

Ib, membrane-binding component of the Iota toxin from Clostridium perfringens (N-terminal cleaved, active) (natural protein)
stoichiometry N: 7
